US20250011418A1 (ZIELBIO, published 2025)

Tests used:
[1] = biological target: T1, Sec8-His (section 8 (Sec8), an antigenic region of CSP-1, tagged with a polyhistidine (His) tag); experiment: ELISA, absorbance 650 nm against concentration in nM on a log axis
T1 construct: also called Sec8-His antigen
T1 chain: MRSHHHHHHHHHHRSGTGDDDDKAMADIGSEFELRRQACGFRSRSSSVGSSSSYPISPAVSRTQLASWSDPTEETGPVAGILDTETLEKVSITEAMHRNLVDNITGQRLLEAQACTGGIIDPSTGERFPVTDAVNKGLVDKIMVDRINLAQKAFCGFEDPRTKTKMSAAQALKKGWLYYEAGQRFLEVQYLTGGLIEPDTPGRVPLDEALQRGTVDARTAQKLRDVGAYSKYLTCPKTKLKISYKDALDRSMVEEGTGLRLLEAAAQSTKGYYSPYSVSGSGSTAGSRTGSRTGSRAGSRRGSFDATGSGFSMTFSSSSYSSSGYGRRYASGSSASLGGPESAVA
Experimental: (§1) The binding of humanized anti-CSP-1 antibody (Ab51) to an antigenic region of CSP-1 called section 8 (Sec8) was measured using ELISA.

[2] = biological target: T2, Reb-His (Reb, a sub-fragment of Sec8, tagged with a polyhistidine (His) tag); experiment: ELISA on REB-HIS, absorbance 650 nm; no unit stands beside the number, the concentration axis is in nM
T2 construct: also called Reb-His peptide
T2 chain: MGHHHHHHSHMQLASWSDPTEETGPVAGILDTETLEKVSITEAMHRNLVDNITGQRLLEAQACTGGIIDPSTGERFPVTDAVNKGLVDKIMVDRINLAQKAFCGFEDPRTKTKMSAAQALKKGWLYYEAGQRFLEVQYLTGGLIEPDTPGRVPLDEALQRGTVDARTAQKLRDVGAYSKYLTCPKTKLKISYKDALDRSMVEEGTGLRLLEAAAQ
Experimental: Furthermore, the binding of Ab51 to a sub-fragment of Sec8, called Reb, was measured using ELISA.

[3] = biological target: T1, Sec8-His (section 8 (Sec8), an …); experiment: ELISA on Sec8-His
Experimental: as §1

B1: humanized anti-CSP-1 antibody, Antibody 51 (Ab51) (antibody, V domains shown)
VH: EVQLVESGGGLVQPGGSLRLSCAASGFTFSRYGMSWVRQAPGKRLEWVATISIGGTYTYYPDSMKGRFTISRDNSKNTLYLQMNSLRAEDTAMYYCARRGYGQYSYYGLDYWGQGTLVTVSS
VL: DIVMTQSALSNPVTLGQSASISCRSSKSLLHSQGITYLYWYLQKPGQSPQLLIYQMSNRASGVPDRFSSSGSGTDFTLKISRVEAEDVGVYYCAQNLELPLTFGQGTKLEIK
notes: also called Antibody Number 51; huZB131
- EC50 (read off the curve) [1]: ~0.4 nM
- EC50 [2]: 0.124 nM
- Kd [3]: 0.441 nM
